Consider one molecule from patent US20160244499A1 (Stanford University, published 2016).

The target of this experiment is T1, γc on human cell lines (Ramos, HH, U937) (human, UniProt P31785 23-369).
T1 sequence (looked up): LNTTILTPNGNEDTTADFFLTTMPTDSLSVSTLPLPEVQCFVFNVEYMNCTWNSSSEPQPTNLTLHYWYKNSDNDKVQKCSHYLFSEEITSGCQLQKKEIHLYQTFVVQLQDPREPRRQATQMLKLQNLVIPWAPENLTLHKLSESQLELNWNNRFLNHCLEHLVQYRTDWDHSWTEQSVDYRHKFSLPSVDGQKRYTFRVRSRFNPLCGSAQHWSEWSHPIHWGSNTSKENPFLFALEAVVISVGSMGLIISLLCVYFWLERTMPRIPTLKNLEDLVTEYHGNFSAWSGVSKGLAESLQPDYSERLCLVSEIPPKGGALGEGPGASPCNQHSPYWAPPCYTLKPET
As to the kind of experiment: cell-based or functional assay.

B1: super-4 (IL-4 RGA), free, not bound to IL-4Rα (ligand)
chain: HKCDITLQEIIKTLNSLTEQKTLCTELTVTDIFAASKNTTEKETFCRAATVLRQFYSHHEKDTRCLGATAQQFHRHKQLIRFLKRLDRNLWGLAGLNSCPVKEANQSTLENFLERLRVIMQSKWFKCGAHHHHHH
As for B1, the “STAT6 phosphorylation in Ramos cells, potency against IL-4” value is roughly 3 fold and the “STAT6 phosphorylation in Ramos cells, potency against KFR” value was roughly 10 fold.
